Experimental data from patent publication US20230287088A1 (BIONTECH, published 2023).
Read-outs that look alike come from different tables or passages of the source.

What was measured:
[1] = target: T1, Human-Fc-tagged SARS-CoV2 S1 recombinant protein (Sino Biologicals) (SARS-CoV-2, UniProt P0DTC2 16-685)
[2] = target: T2, Mouse-Fc-tagged SARS-CoV2 S1-RBD (Sino Biologicals) recombinant protein (SARS-CoV-2, UniProt P0DTC2 319-541); assay: ELISA on coated S1-RBD-mFc
T2 construct: domain: S1-RBD

[3] = target: T2, Mouse-Fc-tagged SARS-CoV2 S1-RBD (Sino …); assay: competition ELISA: blocks S1-RBD-mFc binding to coated ACE-2 ECD
[4] = target: T3, His-tagged SARS-CoV S1-RBD (Sino Biologicals) (SARS-CoV, UniProt P59594 306-527); assay: ELISA, His-tagged SARS-CoV S1-RBD coated, anti-human Fc detection
T3 construct: domain: S1-RBD; Bought reagent

[5] = target: T1, Human-Fc-tagged SARS-CoV2 S1 …; assay: ELISA on coated S1-hFc, 0.85 µg/ml; rabbit antibody in B-cell supernatant
[6] = target: T2, Mouse-Fc-tagged SARS-CoV2 S1-RBD (Sino …)
[7] = target: T1, Human-Fc-tagged SARS-CoV2 S1 …; assay: ELISA on coated S1-hFc, 3 µg/ml; rabbit antibody in B-cell supernatant
[8] = target: T2, Mouse-Fc-tagged SARS-CoV2 S1-RBD (Sino …); assay: SPR, S1-RBD-mFc captured via anti-mouse-Fc antibody, 1:1 model
[9] = target: T2, Mouse-Fc-tagged SARS-CoV2 S1-RBD (Sino …); assay: SPR (Biacore T200), RBD-mFc captured via anti-mouse-Fc on CM5, 1:1 model

Binder | IC50 [1] [µg/mL] | EC50 [2] [µg/mL] | IC50 [3] [µg/mL] | EC50 [4] [µg/mL] | EC50 [5] [µg/mL] | Kd [6] [nM] | EC50 [7] [µg/mL] | Kd [8] [nM] | kon [8] [M⁻¹ s⁻¹] | koff [9] [s⁻¹]
P043.A.00117.C08 (protein sample ID 469) (antibody, V domains shown) VH: QSLEESGGGLVKPEGSLTLTCKASGFDLNTYYYMCWVRQAPGKGLEWIACIGTSDSGHTAYASWARGRFTISKTSSTTVTLQMTGLTAADTATYFCARGGRSVGDGVDLWGPGTLVTVSS VL: DIVMTQTPASVEAAVGGTVTIKCQASQSISSWLAWYQQKPGQPPKLLIYDAFDLASGVPSRFKGSGSGTEFTLTISDLESADAATYYCQSYLYGESGSHGFGFGGGTEVVVR | 0.0142 | 0.0062 | 0.0192 | 0.0885 | 0.0151 |  |  |  |  | 
P043.A.00095.D06 (protein sample ID 470) (antibody, V domains shown, also called S1 targeting antibody 470; anti-S1-antibody 470) VH: QEQLEESGGDLVKPEGSLTLTCTASGFSFSSNYWICWVRQAPGKGLEWIGCIYIGSGDTYYASWAKGRFTISKTSSTTVTLQMTSLTAADTATYFCARSYTPGSYYNMNLWGPGTLVTVSS VL: DVVMTQTPSSVSAAVGGTVTINCQASQQISNELSWYQQKSGQPPKLLIYDASDLASGVPSRFKGSGSGTEFTLTISDLESADAATYYCQSTGGASSDGNAFGGGTEVVVK | 0.0127 | 0.0086 | 0.0196 |  | 0.0101 | 0.0104 |  |  |  | 
P043.A.00047.H08 (protein sample ID 447) (antibody, V domains shown, also called antibody with the Protein sample ID 447) VH: QSLEESGGDLVKPGASLTLTCTASGFSFSSDGMCWVRQAPGKGLEWIACIAAGSSGSTYYATWAQGRFTISKSSSTTVTLQMTSLTAADTATYFCAGEDYTGNNYYALWGPGTLVTVSS VL: AIDMTQTPSPVSAVVGDTVTINCQASENIYSFLAWYQQKPGQPPKLLIYFASKLASGVPSRFKGSGSGTQFTLTISDVHSDDAAIYYCQQTGTYSDADNTFGGGTEVVVK | 0.0163 | 0.0096 | 0.0299 | 0.0081 |  |  | 0.0195 | 0.228 | 296000 | 6.72e-05
